# T1: Gα12 (Homo sapiens, UniProt Q03113)
# T1 construct: host or cells: HEK293
# T1 sequence (Q03113 1-381): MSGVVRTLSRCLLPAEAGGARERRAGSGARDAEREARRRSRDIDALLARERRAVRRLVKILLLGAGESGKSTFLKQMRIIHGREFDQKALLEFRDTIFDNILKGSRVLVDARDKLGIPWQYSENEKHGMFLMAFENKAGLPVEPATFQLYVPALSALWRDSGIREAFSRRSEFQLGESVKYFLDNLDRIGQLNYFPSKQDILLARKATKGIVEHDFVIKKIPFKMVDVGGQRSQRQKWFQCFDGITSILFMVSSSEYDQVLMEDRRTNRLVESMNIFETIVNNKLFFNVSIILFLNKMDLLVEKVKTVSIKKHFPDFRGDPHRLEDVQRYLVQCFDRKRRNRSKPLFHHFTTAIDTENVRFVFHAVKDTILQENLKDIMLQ
# T2: Gαq (Homo sapiens, UniProt P50148)
# T2 sequence (P50148 1-359): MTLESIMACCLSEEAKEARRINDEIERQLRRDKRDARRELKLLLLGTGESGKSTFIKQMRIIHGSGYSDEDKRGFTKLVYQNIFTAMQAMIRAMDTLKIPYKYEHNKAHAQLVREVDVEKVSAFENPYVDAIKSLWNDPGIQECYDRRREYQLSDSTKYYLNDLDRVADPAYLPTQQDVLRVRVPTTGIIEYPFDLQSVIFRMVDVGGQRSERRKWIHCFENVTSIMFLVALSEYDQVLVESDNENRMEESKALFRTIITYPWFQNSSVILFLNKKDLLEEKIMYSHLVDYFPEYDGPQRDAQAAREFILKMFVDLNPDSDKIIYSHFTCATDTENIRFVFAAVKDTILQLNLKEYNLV
# T3: Gα13 (Homo sapiens, UniProt Q14344)
# T3 sequence (Q14344 1-377): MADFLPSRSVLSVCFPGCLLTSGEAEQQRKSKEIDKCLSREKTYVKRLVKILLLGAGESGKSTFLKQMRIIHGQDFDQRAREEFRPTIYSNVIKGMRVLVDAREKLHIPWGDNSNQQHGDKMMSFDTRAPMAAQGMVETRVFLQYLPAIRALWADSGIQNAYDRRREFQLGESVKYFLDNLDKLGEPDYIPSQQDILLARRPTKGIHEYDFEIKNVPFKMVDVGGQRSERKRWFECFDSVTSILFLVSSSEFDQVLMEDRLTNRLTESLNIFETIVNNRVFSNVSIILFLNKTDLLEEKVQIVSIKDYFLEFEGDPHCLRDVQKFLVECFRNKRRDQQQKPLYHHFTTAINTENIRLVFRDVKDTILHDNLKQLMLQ
# B1: DSV36S: anti-G-protein alpha antibody; VH consists of SEQ ID NO: 14, VL of SEQ ID NO: 15; generated by Cisbio Bioassays (antibody, V domains shown)
# VH: EVQLQQSGAELVRPGALVKLSCKASGFNIKDYYMHWVKQRPEQGLEWIGWIDPENGNTIYDPKFQGKASITADTSSNTAYLQLSSLTSEDTAVYYCTRGGGYYSDWYFDVWGAGTTVTVSS
# VL: QIVLTQSPAIMSASPGEKVTMTCSASSSVSYMHWYQQKSGTSPKRWIYDTSKLASGVPARFSGSGSGTSYSLTISSMEAEDAATYYCQQWSSNPPITFGAGTKLELK
# modifications: Variable domain of the heavy chain (VH); Light Chain Variable Domain (VL)
# notes: anti-G-protein alpha antibody; generated by Cisbio Bioassays
# How the values were obtained:
# [1] = target: T4, DOR receptors (Homo sapiens, UniProt P41143); assay: Activation of DOR in HEK293 membranes read by TR-FRET (fluorescent GTP analog + labeled antibody); type: biochemical; details: SNC162 10 μM; read as increase of FRET signal with DSV36S-d2 / DSV38S-d2
# T4 construct: expressed in transfected cells; host or cells: HEK293 membranes
# T4 sequence (P41143 whole entry): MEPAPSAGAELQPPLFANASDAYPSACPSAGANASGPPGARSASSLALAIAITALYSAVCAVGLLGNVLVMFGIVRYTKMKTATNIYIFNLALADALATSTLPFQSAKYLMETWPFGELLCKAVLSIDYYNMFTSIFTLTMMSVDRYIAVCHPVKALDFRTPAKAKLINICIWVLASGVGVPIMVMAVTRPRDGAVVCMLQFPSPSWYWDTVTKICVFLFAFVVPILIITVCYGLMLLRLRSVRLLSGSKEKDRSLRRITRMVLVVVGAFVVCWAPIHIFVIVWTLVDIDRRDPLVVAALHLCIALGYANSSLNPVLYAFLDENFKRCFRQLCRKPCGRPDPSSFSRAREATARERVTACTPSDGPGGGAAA
# Description: (§1) HEK293 membranes expressing the DOR receptor were prepared 4× for a final amount in the wells of 10 μg. The antibodies DSV36S-d2, DSV38S-d2, SC13533-d2 and anti-FLAG-d2 were prepared 4× for a final concentration in the wells of 10 nM.
# (§2) The reagents were distributed in the 384-well plates as follows: • 1) 5 μl of DOR membranes was put in each well, • 2) 5 μl of GTPgN-octyl-C2 labeled with europium cryptate or GTPgO-linker-Cy5 was added to each well, • 3) 5 μl of antibody DSV36S or DSV38S or SC13533 or DSV 26S or DSV3S or DSV 39S labeled with d2 or DSV 36S or SC13533 labeled with terbium cryptate was added to each well, • 4) 5 μl of buffer or SNC 162 or GTPgS was added to each well.
# (§3) The plates were incubated for 20 h at room temperature before reading the HTRF signal.
# [2] = target: Delta Opioid GPCR (Homo sapiens, UniProt P41143); assay: Activation assay format 2A on Delta Opioid GPCR, agonist/antagonist modulation of TR-FRET signal; details: fixed SNC162 200 nM; increasing concentration of antagonist; GTPgN-octyl-C2 + DSV36S-d2; FIG. 16B
# Delta Opioid GPCR, sequence (P41143 whole entry): as above
# [3] = target: T5, Gαi1 (Homo sapiens, UniProt P63096); assay: HTRF competition: unlabeled antibodies versus binding of SC13533-d2 on G-protein αi1; details: unlabeled antibody 0.01-100 nM; SC13533-d2 10 nM; GTPgS 10 μM
# T5 sequence (P63096 whole entry): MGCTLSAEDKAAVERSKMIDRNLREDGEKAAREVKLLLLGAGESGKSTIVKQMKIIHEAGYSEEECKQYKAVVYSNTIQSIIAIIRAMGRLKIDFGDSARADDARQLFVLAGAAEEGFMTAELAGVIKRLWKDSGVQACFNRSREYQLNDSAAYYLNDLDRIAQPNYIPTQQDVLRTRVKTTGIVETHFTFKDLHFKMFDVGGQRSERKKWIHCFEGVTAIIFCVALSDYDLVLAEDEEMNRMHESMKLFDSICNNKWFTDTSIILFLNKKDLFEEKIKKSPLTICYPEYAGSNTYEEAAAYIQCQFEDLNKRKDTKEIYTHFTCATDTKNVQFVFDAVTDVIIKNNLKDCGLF
# Description: (§4) These two reagents were prepared in one and the same solution and were preincubated for 30 minutes at room temperature before being distributed in the wells. The cold antibodies DSV36S, DSV38S and SC13533 were prepared 4× for final concentrations in the wells between 0.01 and 100 nM. The antibody SC 13533-d2 was prepared 4× for a final concentration of 10 nM.
# (§5) The reagents were distributed in the 384-well plates as follows: • 1) 10 μl of the preincubated mixture of G-protein αi1+GTPgS was put in each well, • 2) 5 μl of the unlabeled antibody DSV36S or DSV38S or SC56536 or AM05302PU-N or SC13533 was added to each well, • 3) The plates were incubated for 30 minutes at room temperature, • 4) 5 μl of the anti Twin-Strep-tag-Lumi4 Tb antibody and of the antibody SC13533-d2 were added to each well.
# (§6) The plates were incubated for 1 h at room temperature before reading the HTRF signal.
# [4] = system: G-proteins α; assay: TR-FRET signal of labeled antibody combined with fluorescent GTP analog on HEK293 membranes expressing the DOR receptor; type: binding; details: for FRET signal with GTPgN-octyl-C2-Europium cryptate: antibody labeled with d2 10 nM, GTP analog 6 nM, FIG. 11
# Description: as §1, §2, §3
# [5] = target: T5, Gαi1; assay: HTRF competition: unlabeled antibodies versus binding of DSV36S-d2 on G-protein αi1; details: unlabeled antibody 0.001-1 μM; DSV36S-d2 10 nM; GTPgS 100 μM
# Description: as §4, with “DSV38S, DSV26S, DSV3S,” for “DSV38S”, “DSV39S” for “SC13533”, “0.001” for “0.01”, “1 μM.” for “100 nM.”, “DSV36S-d2” for “SC 13533-d2”
# as §5, with “antibodies DSV36S, DSV38S, DSV26S, DSV3S, and DSV39S” for “antibody DSV36S or DSV38S or SC56536 or AM05302PU-N or SC13533”, “DSV36S-d2” for “SC13533-d2”
# as §6
# [6] = target: T5, Gαi1; assay: Determination of affinity (Kd) of d2-labeled antibodies for G-protein αi1 by HTRF/FRET; type: binding
# Description: These two reagents were prepared in one and the same solution and were preincubated for 30 minutes at room temperature before being distributed in the wells. The antibodies DSV36S-d2, DSV38S-d2 and SC13533-d2 were prepared 4× for final concentrations in the wells between 0.01 and 10 nM depending on the antibodies.
# The reagents were distributed in the 384-well plates as follows: • 1) 10 μl of the preincubation mixture of G-protein αi1+buffer only or GTPgS or GDP was put in each well, • 2) 5 μl of the antibody DSV36S or DSV38S or SC13533 labeled with d2 was added to each well, • 3) 5 μl of the anti Twin-Strep-tag-Lumi4 Tb antibody was added to each well.
# The plates were incubated for 24 h at room temperature before reading the HTRF signal.
# Moreover, the antibody titration curves obtained make it possible to calculate the affinity (Kd) of these different antibodies for the G-protein αi1. This was carried out using the GraphPad Prism software by applying a “one site specific binding” model to the HTRF data.
# [7] = target: T6, Gαi3 (Homo sapiens, UniProt P08754); assay: HTRF selectivity assay, G-protein α overexpressed in HEK293 cells; type: binding; details: antibody-d2 10 nM, 20 h
# T6 construct: host or cells: HEK293
# T6 sequence (P08754 whole entry): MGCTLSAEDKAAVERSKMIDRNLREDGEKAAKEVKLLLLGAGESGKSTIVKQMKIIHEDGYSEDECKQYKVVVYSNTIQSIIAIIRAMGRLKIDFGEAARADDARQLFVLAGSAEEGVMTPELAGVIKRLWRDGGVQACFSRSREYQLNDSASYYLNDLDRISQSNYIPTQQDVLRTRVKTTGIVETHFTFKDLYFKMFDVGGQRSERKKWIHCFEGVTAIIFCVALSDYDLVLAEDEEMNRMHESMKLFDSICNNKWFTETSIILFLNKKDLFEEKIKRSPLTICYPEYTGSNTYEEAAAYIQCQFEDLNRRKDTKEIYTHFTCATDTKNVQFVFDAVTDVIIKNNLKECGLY
# Description: (§7) A solution containing 1 million HEK cells/ml was prepared in OptiMEM medium. Mixtures of plasmids/Lipofectamine containing 150 ng/well of plasmids and 0.375 μl of lipofectamine were prepared in OptiMEM medium 30 minutes before adding them to the 96-well plate with black-bottomed wells.
# (§8) Distribution of the reagents in each well of the black microplate suitable for cell culture: • 1) 50 μl per well of polyornithine was incubated for 30 minutes at room temperature and then the solution was withdrawn from each well by aspiration. • 2) 50 μl of the preparation of HEK293 (cell density of 50000 cells per well) was added to each well • 3) 50 μl of the mixture of plasmids coding for a G-protein+lipofectamine was added to each well.
# (§9) The microplates were incubated for 24 h at 37° C. and 5% CO2 (regulated stove).
# (§10) The antibodies DSV36S-d2, DSV38S-d2 and SC13533-d2 were prepared 4× for a final concentration in the wells of 10 nM.
# (§11) The reagents were distributed on the 384-well plates as follows: • 1) The OptiMEM culture medium was aspirated, • 2) 25 μl of buffer or GDP or GTP was added to each well, • 3) 25 μl of buffer was added to each well, • 4) 25 μl of antibody DSV36S-d2 or DSV38S-d2 or SC13533-d2 or anti-FLAG-d2 was added to each well, • 5) 25 μl of anti Twin-Strep-tag-Lumi4 Tb antibody was added to each well.
# (§12) The microplates were incubated for 20 h at room temperature before reading the HTRF signal.
# [8] = target: T1, Gα12; assay: as above; type: binding; details: antibody-d2 10 nM, 20 h
# Description: as §7, §8, §9, §10, §11, §12
# [9] = target: Gαs (Homo sapiens, UniProt P63092); assay: as above; type: binding; details: antibody-d2 10 nM, 20 h
# Gαs, sequence (P63092 whole entry): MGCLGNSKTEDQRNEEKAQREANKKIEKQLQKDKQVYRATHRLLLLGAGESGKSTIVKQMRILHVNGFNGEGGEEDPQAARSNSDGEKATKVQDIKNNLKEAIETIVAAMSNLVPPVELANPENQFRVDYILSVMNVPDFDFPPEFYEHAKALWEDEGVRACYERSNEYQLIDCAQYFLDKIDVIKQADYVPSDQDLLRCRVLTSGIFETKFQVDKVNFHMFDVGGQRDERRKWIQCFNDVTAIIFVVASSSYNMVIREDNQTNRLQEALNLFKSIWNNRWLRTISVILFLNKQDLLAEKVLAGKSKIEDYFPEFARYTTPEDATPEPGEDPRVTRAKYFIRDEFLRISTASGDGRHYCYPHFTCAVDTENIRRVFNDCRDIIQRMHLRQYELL
# Description: as §7, §8, §9, §10, §11, §12
# [10] = target: T2, Gαq; assay: as above; type: binding; details: antibody-d2 10 nM, 20 h
# Description: as §7, §8, §9, §10, §11, §12
# [11] = target: Gαo (Homo sapiens, UniProt P09471); assay: as above; type: binding; details: antibody-d2 10 nM, 20 h
# Gαo, sequence (P09471 whole entry): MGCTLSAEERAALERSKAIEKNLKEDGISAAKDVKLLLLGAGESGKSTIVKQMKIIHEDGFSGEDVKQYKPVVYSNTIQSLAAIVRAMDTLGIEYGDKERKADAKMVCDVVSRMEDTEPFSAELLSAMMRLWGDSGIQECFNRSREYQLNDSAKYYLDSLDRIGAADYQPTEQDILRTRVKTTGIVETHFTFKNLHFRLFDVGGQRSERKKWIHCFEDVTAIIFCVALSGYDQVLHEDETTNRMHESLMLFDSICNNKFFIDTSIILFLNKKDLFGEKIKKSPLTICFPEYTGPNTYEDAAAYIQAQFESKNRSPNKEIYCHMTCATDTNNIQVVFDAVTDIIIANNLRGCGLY
# Description: as §7, §8, §9, §10, §11, §12
# [12] = target: T7, Gαz (Homo sapiens, UniProt P19086); assay: as above; type: binding; details: antibody-d2 10 nM, 20 h
# T7 construct: host or cells: HEK293
# T7 sequence (P19086 whole entry): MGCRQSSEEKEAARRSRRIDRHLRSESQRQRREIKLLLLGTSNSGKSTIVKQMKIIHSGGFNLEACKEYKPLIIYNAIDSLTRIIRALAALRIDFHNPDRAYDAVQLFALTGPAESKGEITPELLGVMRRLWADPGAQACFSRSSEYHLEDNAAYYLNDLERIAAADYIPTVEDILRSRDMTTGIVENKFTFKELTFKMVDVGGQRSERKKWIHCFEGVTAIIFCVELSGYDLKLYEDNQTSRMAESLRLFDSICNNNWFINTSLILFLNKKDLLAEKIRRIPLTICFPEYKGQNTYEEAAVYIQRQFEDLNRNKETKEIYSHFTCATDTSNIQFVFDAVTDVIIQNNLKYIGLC
# Description: as §7, §8, §9, §10, §11, §12
# [13] = target: T5, Gαi1; assay: as above; type: binding; details: antibody-d2 10 nM, 20 h
# Description: as §7, §8, §9, §10, §11, §12
# [14] = target: T3, Gα13; assay: as above; type: binding; details: antibody-d2 10 nM, 20 h
# Description: as §7, §8, §9, §10, §11, §12
# [15] = target: Gαi2 (Homo sapiens, UniProt P04899); assay: as above; type: binding; details: antibody-d2 10 nM, 20 h
# Gαi2, sequence (P04899 whole entry): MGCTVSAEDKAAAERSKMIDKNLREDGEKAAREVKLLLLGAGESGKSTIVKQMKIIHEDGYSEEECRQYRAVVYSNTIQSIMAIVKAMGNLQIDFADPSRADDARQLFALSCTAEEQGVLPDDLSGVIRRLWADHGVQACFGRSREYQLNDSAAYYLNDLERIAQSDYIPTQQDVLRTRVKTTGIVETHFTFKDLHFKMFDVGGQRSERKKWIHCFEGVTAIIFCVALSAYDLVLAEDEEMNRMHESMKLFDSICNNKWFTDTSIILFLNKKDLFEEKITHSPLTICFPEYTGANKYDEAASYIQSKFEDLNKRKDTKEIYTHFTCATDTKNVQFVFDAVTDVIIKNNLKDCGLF
# Description: as §7, §8, §9, §10, §11, §12
molecule,measurement,setting,value
C=CCN1C[C@H](C)N([C@@H](c2ccccc2)c2ccc(C(=O)N(CC)CC)cc2)C[C@H]1C [SNC162],activation of the DOR receptors overexpressed in the membranes,[1],caused activation of the DOR receptors
Oc1ccc2c3c1O[C@H]1c4[nH]c5ccccc5c4C[C@@]4(O)[C@@H](C2)N(CC2CC2)CC[C@]314 [Naltrindole],"effect on activation by SNC162 (TR-FRET signal, HTRF ratio)",[2],inhibited
B1,inhibition of the HTRF signal obtained with antibody SC13533-d2,[3],not capable of inhibiting
same,FRET signal with GTPgN-octyl-C2-Europium cryptate,[4]; condition buffer (absence of SNC162),moderate but significant FRET signal
same,FRET signal with GTPgN-octyl-C2-Europium cryptate,[4]; on adding SNC162 10 μM,increase of this FRET signal
same,FRET signal with Europium GTPgN-octyl-C2-cryptate,"[4]; unactivated membrane preparations, antibodies labeled with d2, FIG. 12",increase of the FRET signal
same,inhibition of the HTRF signal obtained with antibody DSV36S-d2,[5],completely inhibited
same,signal and affinity depending on the state of G-protein αi1,[6]; G-protein αi1 bound to a nucleotide (in particular GTPgS) versus empty,higher signal and higher affinity
same,capacity for binding the G-protein αi1 (HTRF signal),"[6]; antibodies labeled with d2, in the presence and in the absence of nucleotide (GTPgS or GDP)",capable of binding the G-protein αi1
same,HTRF signal with anti-Twin-Strep-tag-Lumi4 Tb,[7],positive HTRF signal
same,HTRF signal with anti-Twin-Strep-tag-Lumi4 Tb,[8],did not give an HTRF signal
same,HTRF signal with anti-Twin-Strep-tag-Lumi4 Tb,[9],did not give an HTRF signal
same,HTRF signal with anti-Twin-Strep-tag-Lumi4 Tb,[10],did not give an HTRF signal
same,HTRF signal with anti-Twin-Strep-tag-Lumi4 Tb,[11],positive HTRF signal
same,HTRF signal with anti-Twin-Strep-tag-Lumi4 Tb,[12],positive HTRF signal
same,HTRF signal with anti-Twin-Strep-tag-Lumi4 Tb,[13],positive HTRF signal
same,HTRF signal with anti-Twin-Strep-tag-Lumi4 Tb,[14],did not give an HTRF signal
same,HTRF signal with anti-Twin-Strep-tag-Lumi4 Tb,[15],positive HTRF signal
